Experimental findings from patent US9956304B2, “Contrast agents, methods for preparing contrast agents, and methods of imaging” (GEORGIA STATE UNIVERSITY RESEARCH FOUNDATION, INC., priority 2012, dated 2018) are described below.

Where “and” joins values, the source holds several entries; their conditions need not be identical. Equal entries are not always repeated.

Data set [1] can be described thus: Serum stability (SDS-PAGE, mass spectrum, immuno-blot). The settings on record: 50% serum.
A short description of data set [2]: r1 relaxivity at 7 T, inversion recovery. Type of data set: physicochemical. The settings on record: room temperature. The text has this: With the development of high field MRI scanner, there is a strong need to develop the contrast agents with high relaxivity in high magnetic field strength. However, the relaxivity of macromolecular contrast agents always has dramatic drop at high magnetic field. Caravan and Luther point out the contrast agents with optimized relaxivity in high field should have a rotation correlation time (τR) around 2 ns. We tested our Gd-calcium-binding protein variants in 7 T Varian MRI scanner using inversion recovery sequence. […] Other ProCA3s also have a per Gd r1 relaxivity around 20 mM^−1s^−1 at 7 T and room temperature.

Data set [3] can be described thus: r1 and r2 relaxivity, mini-spec 60 MHz 37 C. Type of data set: physicochemical.
Data set [4] in a line: Heat stability during purification. Type of data set: physicochemical. As for the experimental part: These protein solutions were load to FPLC equipped with Hi-trap Q column. After binding to the column, the unbounded component was first washed with 7 column volumes (CV) of buffer A (10 mM HEPES buffer at pH 8.0). Then, buffer B (10 mM HEPES buffer, 1 M NaCl at pH 8.0) concentration was increased to 25% within 7 CV. The column was further washed with 25% of buffer B for 2 CV and then increase to 100% of buffer B of 1 CV to wash out every component bounded to the column. The fractions with ProCA32 elutions were determined by UV abs and SDS-PAGE.

Data set [5] in a line: In vitro MRI detection limit, T1-weighted spin echo at 7 T. It counts as physicochemical. The settings on record: printed partly as 'at least'. The text has this: Less contrast agents are acquired to acquired good image enhancement when the relaxivity of the contrast agent improved.
The nature of data set [6]: Water coordination number by Tb3+ luminescence lifetime. The settings on record: Tb^3+ luminescence lifetime in H2O and D2O. It counts as physicochemical. As for the experimental part: The water coordination number of Tb^3+ in ProCA was measured by Tb^3+ luminescence lifetime experiments. The determined water number for calcium-binding protein WT is 1.3, which is consistent with reported value^31.
Tb^3+ luminescent life time decay in H2O and D2O solvents is measured to characterize the water coordination number of the inner sphere of metal binding sites. WT calcium-binding protein has averaged water number of 1.3, which is consistent with reported value.

For data set [7] the following is noted: mouse, in vivo.
Data set [8] can be described thus: Gd3+ binding affinity by Tb3+-chelator buffer system and Gd3+ competition. The settings on record: vs wild type protein scaffold.
Data set [9] is described as follows: T1- and T2-weighted MRI of liver and blood vessels. Type of data set: in vivo, mice. As for the experimental part: Because the enhanced T1- and T2-weighted images have different effects of imaging contrast (brighter or darker, respectively), there is an enhanced probability of detecting the targeted tumor tissue. In contrast, the currently available approved liver contrast agents such as Eovist® have a very short fast phase (sec.) and liver uptake phase (approximately 3 min) in human. The mouse halftime is much shorter. Due this limitation, with these agents, it is not possible to obtain both high quality imaging for small animal. For human, their applications are also limited by their low relaxivity and short half-life. It is possible to obtain very high quality imaging by applying our contrast agent to both low and high field strengths such as 0.47-9.4 T.
Longer blood circulation of ProCA will benefit the MRI guided intervention therapy […], since such therapy usually performed for a very long time. Long blood circulation time of ProCA32 in blood also promising for the application of DCE-MRI. Arterial input function (AIF) in DCE-MRI experiment is the key experiment for successful calculating tumor permeability. However, it is hard to accurate determine AIF of current clinically available MRI contrast agents, since the blood circulation time of current clinically available MRI contrast agents is too short. […]

The conditions of data set [10]: mouse, in vivo. This is another data set of the same source.

B1: ProCA32: parvalbumin-scaffold protein MRI contrast agent with two Gd3+ binding sites; calcium-binding protein variant (S56D, F103W) (protein)
chain: MSMTDLLNAEDIKKAVGAFSATDSFDHKKFFQMVGLKKKSADDVKKVFHMLDKDKDGFIEEDELGFILKGFSPDARDLSAKETKMLMAAGDKDGDGKIGVEEWSTLVAES
modifications: Gd3+ bound; ProCA3
As to B1, the stable in serum entry in data set [1] is given as “at least 3 days”. Besides, the “per Gd r1 relaxivity at 7 T” value in [2] is 18 mM⁻¹ s⁻¹. In addition, in [3], the “per Gd r1” value is 30 mmol⁻¹ s⁻¹ and the “per particle r1” value was 60 mmol⁻¹ s⁻¹. In data set [4], the heat stability entry is “very stable at 90 °C”. Further, in data set [5], the “concentration detectable in vitro by MRI” value is 2.5 µM and 2 µM. This molecule gave a water coordination number in [6] of 0.4. In addition, in [6] (listed as PROCA32), the water coordination number is recorded as 0.44. Besides, in data set [7], the clearance result is “about 0.13 l/kg” and the excretion half-life result was “around 2.8 hours”. Further, the “higher Tb^3+ and Gd^3+ binding affinity compared with wild type” value in data set [8] is 10^11 fold. The “liver in T2-weighted sequence” value in data set [9] (7 min after tail vein injection) is “the liver became darker”. Besides, the “liver in T1-weighted spin echo” value in data set [9] (15 min) is reported as “the liver showing enhanced an MR signal”. In data set [10], the “blood half-life longer than that of Gd-DTPA” value is “more than 100 times”.
